Reference: patent publication US7838501

Experiments:
[1] = molecular target: chimeric transactivator λR-GyrB-NFκB with λ repressor mutation S93G (mutant clone 25) (bacteriophage λ; Escherichia coli); assay: cell-based or functional assay
[2] = molecular target: chimeric transactivator λR-GyrB-NFκB (wild type λ repressor N-terminal domain) (bacteriophage λ; Escherichia coli); assay: cell-based or functional assay

With “chimeric transactivator λR-GyrB-NFκB with λ repressor mutation S93G (mutant clone 25)” the Activation factor, clone 5 [1] was 5100 fold, the Activation factor, clone 8 [1] was 1500 fold and the Activation factor, clone 10 [1] was 3200 fold. It also gave an Activation factor, clone 18 [1] of 5800 fold, an Activation factor, clone 23 [1] of 14000 fold and an Activation factor, clone 28 [1] of 5100 fold. The Activation factor, clone 34 [1] was 5800 fold, the Activation factor, clone 44 [1] was 13000 fold and the Activation factor, clone 45 [1] was 1600 fold. For the same substance, the Activation factor, clone 47 [1] was 2100 fold, the Luciferase Activity, With Coum (5 nM), clone 5 (Arbitrary Light Units/µg protein) [1] was 47500 and the Luciferase Activity, With Coum (5 nM), clone 8 (Arbitrary Light Units/µg protein) [1] was 52400. It also gave a Luciferase Activity, With Coum (5 nM), clone 10 (Arbitrary Light Units/µg protein) [1] of 1590, a Luciferase Activity, With Coum (5 nM), clone 18 (Arbitrary Light Units/µg protein) [1] of 7450 and a Luciferase Activity, With Coum (5 nM), clone 23 (Arbitrary Light Units/µg protein) [1] of 8240. It also gave a Luciferase Activity, With Coum (5 nM), clone 28 (Arbitrary Light Units/µg protein) [1] of 12300, a Luciferase Activity, With Coum (5 nM), clone 34 (Arbitrary Light Units/µg protein) [1] of 47000 and a Luciferase Activity, With Coum (5 nM), clone 44 (Arbitrary Light Units/µg protein) [1] of 30200. It also gave a Luciferase Activity, With Coum (5 nM), clone 45 (Arbitrary Light Units/µg protein) [1] of 1910, a Luciferase Activity, With Coum (5 nM), clone 47 (Arbitrary Light Units/µg protein) [1] of 8530 and a Luciferase Activity, Without Coum, clone 5 (Arbitrary Light Units/µg protein) [1] of 9.4. For the same substance, the Luciferase Activity, Without Coum, clone 8 (Arbitrary Light Units/µg protein) [1] was 35.8, the Luciferase Activity, Without Coum, clone 10 (Arbitrary Light Units/µg protein) [1] was 0.5 and the Luciferase Activity, Without Coum, clone 18 (Arbitrary Light Units/µg protein) [1] was 1.3. For the same substance, the Luciferase Activity, Without Coum, clone 23 (Arbitrary Light Units/µg protein) [1] was 0.6, the Luciferase Activity, Without Coum, clone 28 (Arbitrary Light Units/µg protein) [1] was 2.4 and the Luciferase Activity, Without Coum, clone 34 (Arbitrary Light Units/µg protein) [1] was 8.1. It also gave a Luciferase Activity, Without Coum, clone 44 (Arbitrary Light Units/µg protein) [1] of 2.4, a Luciferase Activity, Without Coum, clone 45 (Arbitrary Light Units/µg protein) [1] of 1.2 and a Luciferase Activity, Without Coum, clone 47 (Arbitrary Light Units/µg protein) [1] of 4.1. The coumermycin concentration of maximal induction of luciferase, stable clone S93G-5, 40 hr [1] was 2.5 to 5 nM, the induction of luciferase activity, 5 nM coumermycin 40 hr, 293A cells with stable pLuc [1] was 1460 fold and the lowest coumermycin concentration with apparent induction of luciferase expression, stable clone S93G-5, 40 hr [1] was 0.5 nM. The suppression of coumermycin-induced (5 nM) luciferase expression by 5 µM novobiocin, 40 hr [1] was over 98%.
“chimeric transactivator λR-GyrB-NFκB (wild type λ repressor N-terminal domain)” showed an inducibility of luciferase activity, 5 nM coumermycin 40 hr, transient transfection of 293A cells [2] of 50 fold.
